Measured values reported in US20200123268A1 (UNIVERSIT DEGLI STUDI MAGNA GRAECIA CATANZARO, published 2020).

T1: human CD43, endogenous, on primary cells and cell lines that carry the UMG1 epitope (human, UniProt P16150 20-400, native glycosylation of the cell concerned)
T1 construct: also called UMG1 antigen; the target
T1 sequence: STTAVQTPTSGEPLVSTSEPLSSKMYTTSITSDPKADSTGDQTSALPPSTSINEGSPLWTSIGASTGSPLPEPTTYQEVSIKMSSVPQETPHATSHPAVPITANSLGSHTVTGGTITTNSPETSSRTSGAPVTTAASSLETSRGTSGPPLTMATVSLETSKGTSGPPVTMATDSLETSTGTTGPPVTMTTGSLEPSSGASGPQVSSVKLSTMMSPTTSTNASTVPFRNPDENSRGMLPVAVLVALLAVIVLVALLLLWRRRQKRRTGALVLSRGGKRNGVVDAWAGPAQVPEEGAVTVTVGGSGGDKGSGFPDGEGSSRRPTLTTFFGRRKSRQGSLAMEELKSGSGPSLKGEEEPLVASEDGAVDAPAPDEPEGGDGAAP


These binders were tested against T1, human CD43, endogenous, on primary … (assay: flow cytometry, antibody at 1 ug/ml, FITC mouse anti-human IgG secondary; cell line of the histograms not labelled (HPB-ALL or H9)).
Protocol: (§1) Each screening was performed twice, for a total of 4 replicates.

| binding result | Binder |
| --- | --- |
| binds | ch-UMG1 (chimeric antibody: murine UMG1 variable regions on human IgG1 constant regions) (antibody, V domains shown, also called chimeric mAb ch-UMG1; chimeric mAb) VH: DVQLVESGGGLVQPGGSRKLSCVASGFTFSSFGMHWVRQAPEKGLEWVAYISSGSGNFYYVDTVKGRFTISRDNPKNTLFLQMTSLRSEDTAMYYCARSTYYHGSRGAMDYWGQGTSVTVSS VL: QIALTQSPAIMSASPGEKVTMTCSASSSVSSMYWYQLKPGSSPRLLIYDTSKMASGVPIRFSGSGSGTSFSLTVSRVEAEDAATYYCQQWSSYPPITFGAGSKLELKR |

The binders below were run against T1, human CD43, endogenous, on primary … (assay: flow cytometry, antibody at 1 ug/ml, FITC mouse anti-human IgG secondary; histogram grid, cell line not labelled (HPB-ALL or H9)).
Protocol: as §1

| binding result | Binder |
| --- | --- |
| binds | humanized UMG1 antibody H1-L3 (VH1 + VL3) (antibody, IgG1, V domains shown, The label follows the pattern H3-L4) VH: EVQLVESGGGLVQPGGSLRLSCAASGFTFSSFGMHWVRQAPGKGLEWVSYISSGSGNFYYVDTVKGRFTISRDNAKNSLYLQMNSLRAEDTAVYYCARSTYYHGSRGAMDYWGQGTLVTVSS VL: QVVMTQSPAFLSVTPGEKVTITCSASSSVSSMYWYQQKPDQAPKLLIYDTSKMASGVPSRFSGSGSGTDFTFTISSLEAEDAATYYCQQWSSYPPITFGGGTKVEIK |
| binds | humanized UMG1 antibody H4-L2 (VH4 + VL2) (antibody, IgG1, V domains shown, The label follows the pattern H3-L4) VH: QVQLVESGGGVVQPGGSLRLSCVASGFTFSSFGMHWVRQAPGKGLEWVAYISSGSGNFYYVDTVKGRFTISRDNSKNTLYLQMNSLRAEDTAVYYCARSTYYHGSRGAMDYWGQGTLVTVSS VL: EIALTQSPATLSLSPGERATLSCSASSSVSSMYWYQLKPGLAPRLLIYDTSKMASGIPIRFSGSGSGTDFTLTVSRVEPEDFAVYYCQQWSSYPPITFGQGTRLEIK |
| binds | humanized UMG1 antibody H1-L2 (VH1 + VL2) (antibody, IgG1, V domains shown, The label follows the pattern H3-L4) VH: EVQLVESGGGLVQPGGSLRLSCAASGFTFSSFGMHWVRQAPGKGLEWVSYISSGSGNFYYVDTVKGRFTISRDNAKNSLYLQMNSLRAEDTAVYYCARSTYYHGSRGAMDYWGQGTLVTVSS VL: EIALTQSPATLSLSPGERATLSCSASSSVSSMYWYQLKPGLAPRLLIYDTSKMASGIPIRFSGSGSGTDFTLTVSRVEPEDFAVYYCQQWSSYPPITFGQGTRLEIK |
| binds | humanized UMG1 antibody H2-L4 (VH2 + VL4) (antibody, IgG1, V domains shown, The label follows the pattern H3-L4) VH: EVQLVESGGGLVQPGGSLRLSCVASGFTFSSFGMHWVRQAPGKGLEWVSYISSGSGNFYYVDTVKGRFTISRDNAKNSLYLQMNSLRAEDTAVYYCARSTYYHGSRGAMDYWGQGTLVTVSS VL: QVVMTQSPAFLSVTPGEKVTITCSASSSVSSMYWYQLKPDQAPKLLIYDTSKMASGVPIRFSGSGSGTDFTFTVSSVEAEDAATYYCQQWSSYPPITFGGGTKVEIK |
| binds | humanized UMG1 antibody H2-L2 (VH2 + VL2) (antibody, IgG1, V domains shown, The label follows the pattern H3-L4) VH: EVQLVESGGGLVQPGGSLRLSCVASGFTFSSFGMHWVRQAPGKGLEWVSYISSGSGNFYYVDTVKGRFTISRDNAKNSLYLQMNSLRAEDTAVYYCARSTYYHGSRGAMDYWGQGTLVTVSS VL: EIALTQSPATLSLSPGERATLSCSASSSVSSMYWYQLKPGLAPRLLIYDTSKMASGIPIRFSGSGSGTDFTLTVSRVEPEDFAVYYCQQWSSYPPITFGQGTRLEIK |
| binds | humanized UMG1 antibody H3-L2 (VH3 + VL2) (antibody, IgG1, V domains shown, The label follows the pattern H3-L4) VH: EVQLVESGGGLVQPGGSLRLSCVASGFTFSSFGMHWVRQAPGKGLEWVAYISSGSGNFYYVDTVKGRFTISRDNAKNSLYLQMNSLRAEDTAVYYCARSTYYHGSRGAMDYWGQGTLVTVSS VL: EIALTQSPATLSLSPGERATLSCSASSSVSSMYWYQLKPGLAPRLLIYDTSKMASGIPIRFSGSGSGTDFTLTVSRVEPEDFAVYYCQQWSSYPPITFGQGTRLEIK |
| binds | humanized UMG1 antibody H4-L1 (VH4 + VL1) (antibody, IgG1, V domains shown, The label follows the pattern H3-L4) VH: QVQLVESGGGVVQPGGSLRLSCVASGFTFSSFGMHWVRQAPGKGLEWVAYISSGSGNFYYVDTVKGRFTISRDNSKNTLYLQMNSLRAEDTAVYYCARSTYYHGSRGAMDYWGQGTLVTVSS VL: EIVLTQSPATLSLSPGERATLSCSASSSVSSMYWYQQKPGLAPRLLIYDTSKMASGIPDRFSGSGSGTDFTLTISRLEPEDFAVYYCQQWSSYPPITFGQGTRLEIK |
| binds | humanized UMG1 antibody H4-L4 (VH4 + VL4) (antibody, IgG1, V domains shown, The label follows the pattern H3-L4) VH: QVQLVESGGGVVQPGGSLRLSCVASGFTFSSFGMHWVRQAPGKGLEWVAYISSGSGNFYYVDTVKGRFTISRDNSKNTLYLQMNSLRAEDTAVYYCARSTYYHGSRGAMDYWGQGTLVTVSS VL: QVVMTQSPAFLSVTPGEKVTITCSASSSVSSMYWYQLKPDQAPKLLIYDTSKMASGVPIRFSGSGSGTDFTFTVSSVEAEDAATYYCQQWSSYPPITFGGGTKVEIK |
| binds | humanized UMG1 antibody H2-L3 (VH2 + VL3) (antibody, IgG1, V domains shown, The label follows the pattern H3-L4) VH: EVQLVESGGGLVQPGGSLRLSCVASGFTFSSFGMHWVRQAPGKGLEWVSYISSGSGNFYYVDTVKGRFTISRDNAKNSLYLQMNSLRAEDTAVYYCARSTYYHGSRGAMDYWGQGTLVTVSS VL: QVVMTQSPAFLSVTPGEKVTITCSASSSVSSMYWYQQKPDQAPKLLIYDTSKMASGVPSRFSGSGSGTDFTFTISSLEAEDAATYYCQQWSSYPPITFGGGTKVEIK |

The next lines start with the binder.

| Binder | binding result |
| --- | --- |
| humanized UMG1 antibody H3-L1 (VH3 + VL1) (antibody, IgG1, V domains shown, The label follows the pattern H3-L4) VH: EVQLVESGGGLVQPGGSLRLSCVASGFTFSSFGMHWVRQAPGKGLEWVAYISSGSGNFYYVDTVKGRFTISRDNAKNSLYLQMNSLRAEDTAVYYCARSTYYHGSRGAMDYWGQGTLVTVSS VL: EIVLTQSPATLSLSPGERATLSCSASSSVSSMYWYQQKPGLAPRLLIYDTSKMASGIPDRFSGSGSGTDFTLTISRLEPEDFAVYYCQQWSSYPPITFGQGTRLEIK | binds |
| humanized UMG1 antibody H3-L3 (VH3 + VL3) (antibody, IgG1, V domains shown, The label follows the pattern H3-L4) VH: EVQLVESGGGLVQPGGSLRLSCVASGFTFSSFGMHWVRQAPGKGLEWVAYISSGSGNFYYVDTVKGRFTISRDNAKNSLYLQMNSLRAEDTAVYYCARSTYYHGSRGAMDYWGQGTLVTVSS VL: QVVMTQSPAFLSVTPGEKVTITCSASSSVSSMYWYQQKPDQAPKLLIYDTSKMASGVPSRFSGSGSGTDFTFTISSLEAEDAATYYCQQWSSYPPITFGGGTKVEIK | binds |
| humanized UMG1 antibody H4-L3 (VH4 + VL3) (antibody, IgG1, V domains shown, The label follows the pattern H3-L4) VH: QVQLVESGGGVVQPGGSLRLSCVASGFTFSSFGMHWVRQAPGKGLEWVAYISSGSGNFYYVDTVKGRFTISRDNSKNTLYLQMNSLRAEDTAVYYCARSTYYHGSRGAMDYWGQGTLVTVSS VL: QVVMTQSPAFLSVTPGEKVTITCSASSSVSSMYWYQQKPDQAPKLLIYDTSKMASGVPSRFSGSGSGTDFTFTISSLEAEDAATYYCQQWSSYPPITFGGGTKVEIK | binds |
| humanized UMG1 antibody H2-L1 (VH2 + VL1) (antibody, IgG1, V domains shown, The label follows the pattern H3-L4) VH: EVQLVESGGGLVQPGGSLRLSCVASGFTFSSFGMHWVRQAPGKGLEWVSYISSGSGNFYYVDTVKGRFTISRDNAKNSLYLQMNSLRAEDTAVYYCARSTYYHGSRGAMDYWGQGTLVTVSS VL: EIVLTQSPATLSLSPGERATLSCSASSSVSSMYWYQQKPGLAPRLLIYDTSKMASGIPDRFSGSGSGTDFTLTISRLEPEDFAVYYCQQWSSYPPITFGQGTRLEIK | binds |
| humanized UMG1 antibody H1-L4 (VH1 + VL4) (antibody, IgG1, V domains shown, The label follows the pattern H3-L4) VH: EVQLVESGGGLVQPGGSLRLSCAASGFTFSSFGMHWVRQAPGKGLEWVSYISSGSGNFYYVDTVKGRFTISRDNAKNSLYLQMNSLRAEDTAVYYCARSTYYHGSRGAMDYWGQGTLVTVSS VL: QVVMTQSPAFLSVTPGEKVTITCSASSSVSSMYWYQLKPDQAPKLLIYDTSKMASGVPIRFSGSGSGTDFTFTVSSVEAEDAATYYCQQWSSYPPITFGGGTKVEIK | binds |
| humanized UMG1 antibody H1-L1 (VH1 + VL1) (antibody, IgG1, V domains shown, The label follows the pattern H3-L4) VH: EVQLVESGGGLVQPGGSLRLSCAASGFTFSSFGMHWVRQAPGKGLEWVSYISSGSGNFYYVDTVKGRFTISRDNAKNSLYLQMNSLRAEDTAVYYCARSTYYHGSRGAMDYWGQGTLVTVSS VL: EIVLTQSPATLSLSPGERATLSCSASSSVSSMYWYQQKPGLAPRLLIYDTSKMASGIPDRFSGSGSGTDFTLTISRLEPEDFAVYYCQQWSSYPPITFGQGTRLEIK | binds |
